The text below walks through data of PMC9576733, “Cryo-EM structures of the translocational binary toxin complex CDTa-bound CDTb-pore from Clostridioides difficile” (Nature Communications, 2022).

“And” between values parts separate entries of the source, which are not always exact repeats. Equal entries are not always repeated.

Usually kon stands for the rate constant with which the complex forms. A word on the Kd: it is the equilibrium constant for the complex coming apart. In general, koff refers to the rate constant with which the complex falls apart. For orientation: stoichiometry N means a count of units in the complex or per binding partner.

In data set [1] the target is CDTb-pore, wild type (chymotrypsin-activated CDTb oligomer) (Clostridioides difficile) (UniProt O32739). The experiment in a line: SPR; CDTb-pore (WT, PSS, SPS) amine-coupled on SPRi-Biochip CS-HD, CDTa injected; room temperature, 50 uL/min; pH 5.5, 10 mM MES, 0.15 M NaCl, 1 mM EGTA, 0.005% Surfactant P20, 5 mM CaCl2; 1:1 model; average of two measurements.
Data set [2] concerns the target CDTb-pore PSS-loop mutant (NSS > PSS) (Clostridioides difficile) (UniProt O32739). In words: SPR; CDTb-pore (WT, PSS, SPS) amine-coupled on SPRi-Biochip CS-HD, CDTa injected; room temperature, 50 uL/min; pH 7.4, 10 mM HEPES, 0.15 M NaCl, 1 mM EGTA, 0.005% Surfactant P20, 5 mM CaCl2; 1:1 model; average of two measurements.
For data set [3], the target named is CDTb-pore, wild type (chymotrypsin-activated CDTb oligomer) (Clostridioides difficile) (UniProt O32739). The description is as above.
Data set [4] has as its target CDTb-pore SPS-loop mutant (NSS > SPS) (Clostridioides difficile) (UniProt O32739). The data set is described as above.
Data set [5] deals with CDTb-pore, wild type (chymotrypsin-activated CDTb oligomer) (Clostridioides difficile) (UniProt O32739). The experiment in a line: cryo-EM structure; CDTa without His-tag added to purified WT CDTb-pore at 3-fold molar excess, unbound CDTa not removed; 10 mM HEPES pH 7.5, 1 mM CaCl2, 0.003% LMNG; classes: di-heptamer, long pore, short pore.
Data set [6] deals with CDTb-pore PSS-loop mutant (NSS > PSS) (Clostridioides difficile) (UniProt O32739). The experiment in a line: SPR; CDTb-pore (WT, PSS, SPS) amine-coupled on SPRi-Biochip CS-HD, CDTa injected; room temperature, 50 uL/min; pH 5.5, 10 mM MES, 0.15 M NaCl, 1 mM EGTA, 0.005% Surfactant P20, 5 mM CaCl2; 1:1 model; average of two measurements.
In data set [7] the target is CDTb-pore SPS-loop mutant (NSS > SPS) (Clostridioides difficile) (UniProt O32739). The description is as above.
Data set [8] has as its target CDTb-pore PSS-loop mutant (NSS > PSS) (Clostridioides difficile) (UniProt O32739). In words: SPR; CDTb-pore (WT, PSS, SPS) amine-coupled on SPRi-Biochip CS-HD, CDTa injected; room temperature, 50 uL/min; pH 5.5, 10 mM MES, 0.15 M NaCl, 1 mM EGTA, 0.005% Surfactant P20 (no calcium); 1:1 model; average of two measurements.
The target of data set [9] is CDTb-pore, wild type (chymotrypsin-activated CDTb oligomer) (Clostridioides difficile) (UniProt O32739). Described as above.
Data set [10] has as its target CDTb-pore SPS-loop mutant (NSS > SPS) (Clostridioides difficile) (UniProt O32739). The data set is described as above.
Data set [11] deals with CDTb-pore PSS-loop mutant (NSS > PSS) (Clostridioides difficile) (UniProt O32739). In words: SPR; CDTb-pore (WT, PSS, SPS) amine-coupled on SPRi-Biochip CS-HD, CDTa injected; room temperature, 50 uL/min; pH 7.4, 10 mM HEPES, 0.15 M NaCl, 1 mM EGTA, 0.005% Surfactant P20 (no calcium); 1:1 model; average of two measurements. Background: SPR reads the build-up and loss of mass on a sensor chip optically.

The target of data set [12] is CDTb-pore, wild type (chymotrypsin-activated CDTb oligomer) (Clostridioides difficile) (UniProt O32739). Described as above.
Data set [13] addresses CDTb-pore SPS-loop mutant (NSS > SPS) (Clostridioides difficile) (UniProt O32739). Described as above.
Data set [14] concerns the molecule itself. In words: density gradient ultracentrifugation; CDTb after alpha-chymotrypsin, 0.03% LMNG 1 h 37 °C (LMNG after or before chymotrypsin); 10-30% glycerol, 50 mM HEPES pH 7.5, 100 mM NaCl, 1 mM CaCl2, 0.003% LMNG, 230,139 x g 16 h; A280 of fractions; protomers to heptamer and heptamer to di-heptamer.

Turning to “CDTa (enzymatic A-component of the Clostridioides difficile binary toxin CDT) (CDTa injected)”, the kon in data set [1] was 152000 M⁻¹ s⁻¹.

In the case of “CDTa (enzymatic A-component of the Clostridioides difficile binary toxin CDT) (enzyme)”, the Kd in data set [2] stood at 4.93 nM; in data set [3] it was 3.27 nM; in [4] it was 1.89 nM; in data set [6] it was 2.29 nM; in data set [1], 2.86 nM; in data set [7], 2.69 nM. The Kd in data set [8] stood at 2.27 nM; in data set [9] it was 1.53 nM; in data set [10], 1.61 nM; in [11], 55.1 nM; in data set [12], 28.6 nM; in data set [13], 26.2 nM. For the same molecule, the off-rate (koff) in [2] came to 0.00108 s⁻¹; in [3], 0.000619 s⁻¹; in data set [4] it was 0.000521 s⁻¹; in [6] it was 0.000376 s⁻¹; in data set [1], 0.000436 s⁻¹; in [7], 0.000326 s⁻¹. Further, the koff in data set [8] was 0.00132 s⁻¹; in data set [9], 0.000763 s⁻¹; in data set [10], 0.000709 s⁻¹; in data set [11] it was 0.00567 s⁻¹; in data set [12] it was 0.00413 s⁻¹; in [13], 0.00304 s⁻¹. For the same molecule, the kon in data set [2] was found to be 220000 M⁻¹ s⁻¹; in data set [3] it was 189000 M⁻¹ s⁻¹; in [4], 276000 M⁻¹ s⁻¹; in data set [6], 164000 M⁻¹ s⁻¹; in data set [7] it was 121000 M⁻¹ s⁻¹; in data set [8], 584000 M⁻¹ s⁻¹. The kon in data set [9] turned out to be 498000 M⁻¹ s⁻¹; in [10], 441000 M⁻¹ s⁻¹; in data set [11] it was 103000 M⁻¹ s⁻¹; in data set [12], 144000 M⁻¹ s⁻¹; in data set [13] it was 116000 M⁻¹ s⁻¹. Besides, the stoichiometry N in [5] was 1.

B1: CDTb-pore, wild type (chymotrypsin-activated CDTb oligomer) (complex)
chain: WEDEDLDTDNDNIPDSYERNGYTIKDLIAVKWEDSFAEQGYKKYVSNYLESNTAGDPYTDYEKASGSFDKAIKTEARDPLVAAYPIVGVGMEKLIISTNEHASTDQGKTVSRATTNSKTESNTAGVSVNVGYQNGFTANVTTNYSHTTDNSTAVQDSNGESWNTGLSINKGESAYINANVRYYNTGTAPMYKVTPTTNLVLDGDTLSTIKAQENQIGNNLSPGDTYPKKGLSPLALNTMDQFSSRLIPINYDQLKKLDAGKQIKLETTQVSGNFGTKNSSGQIVTEGNSWSDYISQIDSISASIILDTENESYERRVTAKNLQDPEDKTPELTIGEAIEKAFGATKKDGLLYFNDIPIDESCVELIFDDNTANKIKDSLKTLSDKKIYNVKLERGMNILIKTPTYFTNFDDYNNYPSTWSNVNTTNQDGLQGSANKLNGETKIKIPMSELKPYKRYVFSGYSKDPLTSNSIIVKIKAKEEKTDYLVPEQGYTKFSYEFETTEKDSSNIEITLIGSGTTYLDNLSITELNSTPEILDEPEVKIPTDQEIMDAHKIYFADLNFNPSTGNTYINGMYFAPTQTNKEALDYIQKYRVEATLQYSGFKDIGTKDKEMRNYLGDPNQPKTNYVNLRSYFTGGENIMTYKKLRIYAITPDDRELLVLSVD
notes: CDTb, Clostridioides difficile, UniProt O32739; cloned as amino acids 40-876 (without signal peptide); domains after cleavage are printed as 1' (W214-A296, domain 1 without the pro-peptide) to 4 (T617-D876); Heptameric pore; also found as a di-heptamer (14 chains); also called WT CDTb; NSS-loop
Regarding B1, the “stoichiometry N” value in data set [14] is 14 and 7.

B2: CDTb F774L mutant (chymotrypsin-activated oligomer) (complex)
chain: WEDEDLDTDNDNIPDSYERNGYTIKDLIAVKWEDSFAEQGYKKYVSNYLESNTAGDPYTDYEKASGSFDKAIKTEARDPLVAAYPIVGVGMEKLIISTNEHASTDQGKTVSRATTNSKTESNTAGVSVNVGYQNGFTANVTTNYSHTTDNSTAVQDSNGESWNTGLSINKGESAYINANVRYYNTGTAPMYKVTPTTNLVLDGDTLSTIKAQENQIGNNLSPGDTYPKKGLSPLALNTMDQFSSRLIPINYDQLKKLDAGKQIKLETTQVSGNFGTKNSSGQIVTEGNSWSDYISQIDSISASIILDTENESYERRVTAKNLQDPEDKTPELTIGEAIEKAFGATKKDGLLYFNDIPIDESCVELIFDDNTANKIKDSLKTLSDKKIYNVKLERGMNILIKTPTYFTNFDDYNNYPSTWSNVNTTNQDGLQGSANKLNGETKIKIPMSELKPYKRYVFSGYSKDPLTSNSIIVKIKAKEEKTDYLVPEQGYTKFSYEFETTEKDSSNIEITLIGSGTTYLDNLSITELNSTPEILDEPEVKIPTDQEIMDAHKIYFADLNLNPSTGNTYINGMYFAPTQTNKEALDYIQKYRVEATLQYSGFKDIGTKDKEMRNYLGDPNQPKTNYVNLRSYFTGGENIMTYKKLRIYAITPDDRELLVLSVD
notes: CDTb, Clostridioides difficile, UniProt O32739; cloned as amino acids 40-876; domains after cleavage printed as W214-D876; Prepared by the same protocol as wild type, without LMNG pretreatment; source: E. coli BL21 Star (DE3), purified as wild type (Glutathione Sepharose 4B), alpha-chymotrypsin, LMNG
As to B2, in data set [14], the “stoichiometry N” value is 14 and 7.

B3: CDTb F774G mutant (chymotrypsin-activated oligomer) (complex)
chain: WEDEDLDTDNDNIPDSYERNGYTIKDLIAVKWEDSFAEQGYKKYVSNYLESNTAGDPYTDYEKASGSFDKAIKTEARDPLVAAYPIVGVGMEKLIISTNEHASTDQGKTVSRATTNSKTESNTAGVSVNVGYQNGFTANVTTNYSHTTDNSTAVQDSNGESWNTGLSINKGESAYINANVRYYNTGTAPMYKVTPTTNLVLDGDTLSTIKAQENQIGNNLSPGDTYPKKGLSPLALNTMDQFSSRLIPINYDQLKKLDAGKQIKLETTQVSGNFGTKNSSGQIVTEGNSWSDYISQIDSISASIILDTENESYERRVTAKNLQDPEDKTPELTIGEAIEKAFGATKKDGLLYFNDIPIDESCVELIFDDNTANKIKDSLKTLSDKKIYNVKLERGMNILIKTPTYFTNFDDYNNYPSTWSNVNTTNQDGLQGSANKLNGETKIKIPMSELKPYKRYVFSGYSKDPLTSNSIIVKIKAKEEKTDYLVPEQGYTKFSYEFETTEKDSSNIEITLIGSGTTYLDNLSITELNSTPEILDEPEVKIPTDQEIMDAHKIYFADLNGNPSTGNTYINGMYFAPTQTNKEALDYIQKYRVEATLQYSGFKDIGTKDKEMRNYLGDPNQPKTNYVNLRSYFTGGENIMTYKKLRIYAITPDDRELLVLSVD
notes: as for B2
On to B3, for which the “stoichiometry N” value in [14] is 14 and 7.
